Experimental data published in PMC6385295 (Nature Communications, 2019).
Ends that are not written are not given here.

What was measured:
[1] = molecular target: T1, HLA-A*25:01 on One Lambda LABScreen Single Antigen beads (Homo sapiens, HLA-A*25:01, strain); assay: One Lambda LABScreen Single Antigen bead assay (OL-SAB), HLA Class I; 2E3-IgG1 at 1 μg mL^−1, diluted 20× in negative control serum; HLA antigens on beads; settings: both partners purified
T1 construct: HLA-A*25:01 α chain, human; human beta-2-microglobulin; β2m and peptide are surmised for a class I HLA antigen; source: bought: One Lambda Inc. (LABScreen Single Antigen HLA Class I beads); copies: + +

[2] = molecular target: T2, HLA-A*26:01 on One Lambda LABScreen Single Antigen beads (Homo sapiens, HLA-A*26:01, strain); assay: as above; settings: both partners purified
T2 construct: HLA-A*26:01 α chain, human; human beta-2-microglobulin; β2m and peptide are surmised for a class I HLA antigen; source: bought: One Lambda Inc. (LABScreen Single Antigen HLA Class I beads); copies: + +

[3] = molecular target: T3, HLA-A*34:01 on One Lambda LABScreen Single Antigen beads (Homo sapiens, HLA-A*34:01, strain); assay: as above; settings: both partners purified
T3 construct: HLA-A*34:01 α chain, human; human beta-2-microglobulin; β2m and peptide are surmised for a class I HLA antigen; source: bought: One Lambda Inc. (LABScreen Single Antigen HLA Class I beads); copies: + +

[4] = molecular target: T4, HLA-A*34:02 on One Lambda LABScreen Single Antigen beads (Homo sapiens, HLA-A*34:02, strain); assay: as above; settings: both partners purified
T4 construct: HLA-A*34:02 α chain, human; human beta-2-microglobulin; β2m and peptide are surmised for a class I HLA antigen; source: bought: One Lambda Inc. (LABScreen Single Antigen HLA Class I beads); copies: + +

[5] = molecular target: T5, HLA-A*36:01 on One Lambda LABScreen Single Antigen beads (Homo sapiens, HLA-A*36:01, strain); assay: as above; settings: both partners purified
T5 construct: HLA-A*36:01 α chain, human; human beta-2-microglobulin; β2m and peptide are surmised for a class I HLA antigen; source: bought: One Lambda Inc. (LABScreen Single Antigen HLA Class I beads); copies: + +

[6] = molecular target: T6, HLA-A*43:01 on One Lambda LABScreen Single Antigen beads (Homo sapiens, HLA-A*43:01, strain); assay: as above; settings: both partners purified
T6 construct: HLA-A*43:01 α chain, human; human beta-2-microglobulin; β2m and peptide are surmised for a class I HLA antigen; source: bought: One Lambda Inc. (LABScreen Single Antigen HLA Class I beads); copies: + +

[7] = molecular target: T7, HLA-A*66:01 on One Lambda LABScreen Single Antigen beads (Homo sapiens, HLA-A*66:01, strain); assay: as above; settings: both partners purified
T7 construct: HLA-A*66:01 α chain, human; has Asp90; human beta-2-microglobulin; β2m and peptide are surmised for a class I HLA antigen; source: bought: One Lambda Inc. (LABScreen Single Antigen HLA Class I beads); copies: + +

[8] = molecular target: T8, HLA-A*80:01 on One Lambda LABScreen Single Antigen beads (Homo sapiens, HLA-A*80:01, strain); assay: as above; settings: both partners purified
T8 construct: HLA-A*80:01 α chain, human; human beta-2-microglobulin; β2m and peptide are surmised for a class I HLA antigen; source: bought: One Lambda Inc. (LABScreen Single Antigen HLA Class I beads); copies: + +

[9] = molecular target: T9, HLA-B*73:01 on One Lambda LABScreen Single Antigen beads (Homo sapiens, HLA-B*73:01, strain); assay: as above; settings: both partners purified
T9 construct: HLA-B*73:01 α chain, human; human beta-2-microglobulin; β2m and peptide are surmised for a class I HLA antigen; source: bought: One Lambda Inc. (LABScreen Single Antigen HLA Class I beads); copies: + +

[10] = molecular target: T10, HLA-A*01:01 on One Lambda LABScreen Single Antigen beads (Homo sapiens, HLA-A*01:01, strain); assay: as above; settings: both partners purified
T10 construct: HLA-A*01:01 α chain, human; human beta-2-microglobulin; β2m and peptide are surmised for a class I HLA antigen; source: bought: One Lambda Inc. (LABScreen Single Antigen HLA Class I beads); copies: + +

[11] = molecular target: T11, HLA-A*11:01 on One Lambda LABScreen Single Antigen beads (Homo sapiens, HLA-A*11:01, strain); assay: as above; settings: both partners purified
T11 construct: HLA-A*11:01 α chain, human; human beta-2-microglobulin; β2m and peptide are surmised for a class I HLA antigen; source: bought: One Lambda Inc. (LABScreen Single Antigen HLA Class I beads); copies: + +

[12] = molecular target: T12, refolded recombinant HLA-A*11:01 monomer (peptide-HLA complex) (Homo sapiens, HLA-A*11:01, strain, also: biotinylated in vitro by biotin ligase, peptide-HLA complex); assay: ELISA; affinity determination: streptavidin-coated plate, increasing concentrations of biotinylated antigen (16 h) and of primary antibody (8 h), room temperature; goat-anti-human IgG-HRP; settings: both partners purified
T12 construct: HLA-A*11:01 α chain, human, extracellular portion; human beta-2-microglobulin (β2m); the peptide of the crystallised complex is in PDB 6ID4; The methods describe one preparation (biotinylated) for all HLA monomers; copies: + +
T12 chain 1: not shown
T12 chain 2: not shown
T12 chain 3: AIFQSSMTK

[13] = molecular target: T12, refolded recombinant HLA-A*11:01 …; assay: quartz crystal microbalance (QCM); Attana Cell A200, 25 °C, PBS running buffer; biotinylated refolded HLA-A*11:01 held on a streptavidin-saturated LNB-carboxyl chip; 2E3-IgG1 injected at 2.5 to 20 nM, single cycle kinetics; settings: both partners purified
[14] = molecular target: T13, HLA-A*11:01 on the surface of HLA-A*11:01-positive EBV-BCLs (Homo sapiens, HLA-A*11:01, strain); assay: flow cytometry on cells; 0.5×10^6 EBV-BCLs with 5 μg mL^−1 mouse chimeric 2E3, 4 °C, 2 h, PBS with 3% FBS; AlexaFluor-488 goat-anti-mouse IgG; settings: one partner purified
T13 construct: HLA-A*11:01 α chain, endogenous on Epstein-Barr virus transformed B-cell lines; human beta-2-microglobulin, endogenous; The cells carry other HLA alleles too; also called A*11:01 homozygous EBV-BCLs; HLA-A*11:01 expressing target cell lines; source: endogenous, on HLA-typed EBV-BCLs; copies: + +

B1: human monoclonal alloantibody 2E3, recombinant human IgG1 (antibody, V domains shown)
VH: EVQLVQSGAEVKKPGASVKVSCKASGYTFTGYYMHWVRQAPGQGLEWMGWINPNSGGTSYAQKFQGRVTMTRDTSTSTVYMELSSLRSEDTAVYYCARVTTVIAGPVFDYWGQGTLVTVSS
VL: QAVLTQPSSLSASPGASASLTCTLRSGINVGPYNIYWYQQKPGSPPQYLMRYKSDPDKHQGSAVPSRFSGSKDASANAGILLISGLQSEDEADYYCMIWHNNAWVFGGGTKLTVL
notes: variable region of the 2E3 heavy chain; constant region of human IgG1 from the heavy chain expression vector; full-length 2E3 light chain; IgG1; isolated from a human Fab phage library (Humanyx) by panning on HLA-A*11:01; also called 2E3-IgG1; source: HEK293, cotransfected, purified from culture supernatants (protein G Sepharose)
- binding result [1]: binds
- binding result [2]: binds
- binding result [3]: binds
- binding result [4]: binds
- binding result [5]: binds
- binding result [6]: binds
- binding result [7]: binds
- binding result [8]: binds
- binding result [9]: binds
- binding result [10]: binds
- binding result [11]: binds
- Kd [12]: 0.16 nM
- Kd [13]: 10.3 nM
- koff [13]: 0.00033 s⁻¹
- kon [13]: 104000 M⁻¹ s⁻¹

B2: mouse chimeric form of antibody 2E3 (mouse IgG1 constant region) (antibody, V domains shown)
VH: B1 VH
VL: B1 VL
notes: variable region of the 2E3 heavy chain; constant region of mouse IgG1 from the heavy chain expression vector; full-length 2E3 light chain; used for flow cytometry, detected with goat-anti-mouse IgG; also called mouse Fc chimeric antibody; source: HEK293, cotransfected, purified from culture supernatants (protein G Sepharose)
- binding result [14]: binds
